# According to IntAct's records for PubMed 24843043:
# B1: Outer mitochondrial transmembrane helix translocase (Saccharomyces cerevisiae), P28737 (parent)
# chain: MSRKFDLKTITDLSVLVGTGISLYYLVSRLLNDVESGPLSGKSRESKAKQSLQWEKLVKRSPALAEVTLDAYERTILSSIVTPDEINITFQDIGGLDPLISDLHESVIYPLMMPEVYSNSPLLQAPSGVLLYGPPGCGKTMLAKALAKESGANFISIRMSSIMDKWYGESNKIVDAMFSLANKLQPCIIFIDEIDSFLRERSSTDHEVTATLKAEFMTLWDGLLNNGRVMIIGATNRINDIDDAFLRRLPKRFLVSLPGSDQRYKILSVLLKDTKLDEDEFDLQLIADNTKGFSGSDLKELCREAALDAAKEYIKQKRQLIDSGTIDVNDTSSLKIRPLKTKDFTKKLRMDATSTLSSQPLD
# partner: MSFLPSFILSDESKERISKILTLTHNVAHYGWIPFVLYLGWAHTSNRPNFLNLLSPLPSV
# B2: Outer mitochondrial transmembrane helix translocase (Saccharomyces cerevisiae), P28737 (parent)
# chain: B1 chain
# partner: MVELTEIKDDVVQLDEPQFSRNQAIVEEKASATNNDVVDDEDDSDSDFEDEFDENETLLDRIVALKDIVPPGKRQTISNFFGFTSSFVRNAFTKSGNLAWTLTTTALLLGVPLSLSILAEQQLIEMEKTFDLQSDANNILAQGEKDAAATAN
# Variants of: B1
# Details: with tom7_yeast TOM7, P53507
row,effect of a mutation on the interaction,Variant
1,increasing interaction,E193Q

# Variants of: B2
# Details: with tom22_yeast TOM22, P49334
row,effect of a mutation on the interaction,Variant
1,increasing interaction,E193Q
